Where a chain is given by its changes, count along the chain named.
T1: human BCMA (human, UniProt Q02223 1-184)
T1 construct: whole, on cells; also called hBCMA; TNFRSF17
T1 sequence (looked up): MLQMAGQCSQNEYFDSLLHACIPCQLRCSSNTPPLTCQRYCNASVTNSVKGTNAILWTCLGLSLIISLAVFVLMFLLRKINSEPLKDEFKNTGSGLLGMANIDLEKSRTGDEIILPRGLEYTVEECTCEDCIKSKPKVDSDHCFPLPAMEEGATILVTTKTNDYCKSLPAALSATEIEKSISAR

B1: PR001995 (bispecific antibody, IgG1)
chain 1: EVQLLESGGGLVQPGGSLRLSCAASGFTFNTYAMNWVRQAPGKGLEWVSRIRSKYNNYATYYADSVKDRFTISRDDSKSTLYLQMNSLRAEDTAVYYCVRHGNFGNSYVSWFAYWGQGTLVTVSSASTKGPSVFPLAPSSKSTSGGTAALGCLVKDYFPEPVTVSWNSGALTSGVHTFPAVLQSSGLYSLSSVVTVPSSSLGTQTYICNVNHKPSNTKVDKKVEPKSC
chain 2: QAVVTQEPSLTVSPGGTVTLTCRSSTGAVTTSNYANWVQQKPGQAPRGLIGGTNKRAPWTPARFSGSLLGDKAALTLLGAQPEDEAEYFCALWYSNLWVFGGGTKLTVLGQPKAAPSVTLFPPSSEELQANKATLVCLISDFYPGAVTVAWKADSSPVKAGVETTTPSKQSNNKYAASSYLSLTPEQWKSHRSYSCQVTHEGSTVEKTVAPTECSDKTHTCPPCPAPEAAGGPSVFLFPPKPKDTLMISRTPEVTCVVVDVSHEDPEVKFNWYVDGVEVHNAKTKPREEQYNSTYRVVSVLTVLHQDWLNGKEYKCKVSNKALGAPIEKTISKAKGQPREPQVYTLPPCREEMTKNQVSLWCLVKGFYPSDIAVEWESNGQPENNYKTTPPVLDSDGSFFLYSKLTVDKSRWQQGNVFSCSVMHEALHNHYTQKSLSLSPGK
chain 3: EVQLLESGGGLVQPGGSLRLSCAASGFTFSSYAMIWVRQAPGKGLEWVSGISESGGSTYYADSVKGRFTISRDNSKNTLYLQMNSLRAEDTAVYFCVKDLDDILTGYYKDYWGQGTLVTVSSASEPKSSDKTHTCPPCPAPEAAGGPSVFLFPPKPKDTLMISRTPEVTCVVVDVSHEDPEVKFNWYVDGVEVHNAKTKPREEQYNSTYRVVSVLTVLHQDWLNGKEYKCKVSNKALGAPIEKTISKAKGQPREPQVCTLPPSREEMTKNQVSLSCAVKGFYPSDIAVEWESNGQPENNYKTTPPVLDSDGSFFLVSKLTVDKSRWQQGNVFSCSVMHEALHNHYTQKSLSLSPGK
notes: CD3 of PR000511, BCMA VH of PR000940; IgG1 knob/hole, AAG
B2: PR003869 (bispecific antibody, human IgG1, lambda, L234A L235A)
light: QAVVTQEPSLTVSPGGTVTLTCRSSTGAVTTSNYANWVQQKPGQAPRGLIGGTNKRAPWTPARFSGSLLGDKAALTLLGAQPEDEAEYFCALWYSNLWVFGGGTKLTVLGQPKAAPSVTLFPPSSEELQANKATLVCLISDFYPGAVTVAWKADSSPVKAGVETTTPSKQSNNKYAASSYLSLTPEQWKSHRSYSCQVTHEGSTVEKTVAPTECS
heavy: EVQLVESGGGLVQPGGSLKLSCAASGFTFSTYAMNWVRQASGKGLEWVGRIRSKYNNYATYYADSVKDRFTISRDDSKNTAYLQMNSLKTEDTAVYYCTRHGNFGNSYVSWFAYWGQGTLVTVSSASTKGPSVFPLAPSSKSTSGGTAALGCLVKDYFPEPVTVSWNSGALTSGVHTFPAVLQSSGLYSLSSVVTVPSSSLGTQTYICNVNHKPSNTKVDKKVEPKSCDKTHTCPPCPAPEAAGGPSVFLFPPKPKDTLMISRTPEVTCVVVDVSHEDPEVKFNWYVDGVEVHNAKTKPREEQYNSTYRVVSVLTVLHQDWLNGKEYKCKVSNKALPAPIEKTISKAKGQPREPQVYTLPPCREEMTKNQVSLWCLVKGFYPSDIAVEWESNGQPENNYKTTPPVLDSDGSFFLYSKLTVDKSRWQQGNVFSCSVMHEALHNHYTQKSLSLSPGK
chain: EVQLVETGGGLIQPGGSLRLSCAASGFTVSDSYMTWVRQAPGKGLEWVSVIFSGGRTYYSDSVKGRFTISRDNAKNTLYLQMNSLRAEDTALYYCARRNYDQTLGTDVFDIWGQGTMVTVSSASEPKSSDKTHTCPPCPAPEAAGGPSVFLFPPKPKDTLMISRTPEVTCVVVDVSHEDPEVKFNWYVDGVEVHNAKTKPREEQYNSTYRVVSVLTVLHQDWLNGKEYKCKVSNKALPAPIEKTISKAKGQPREPQVCTLPPSREEMTKNQVSLSCAVKGFYPSDIAVEWESNGQPENNYKTTPPVLDSDGSFFLVSKLTVDKSRWQQGNVFSCSVMHEALHNHYTQKSLSLSPGK
notes: BCMAxCD3, Fab-Fc-VH (structure 11); CD3 Fab of PR003886, BCMA VH of PR004564; IgG1 knob/hole, LALA
B3: PR003870 (bispecific antibody, human IgG1, lambda, L234A L235A)
light: B2 light
heavy: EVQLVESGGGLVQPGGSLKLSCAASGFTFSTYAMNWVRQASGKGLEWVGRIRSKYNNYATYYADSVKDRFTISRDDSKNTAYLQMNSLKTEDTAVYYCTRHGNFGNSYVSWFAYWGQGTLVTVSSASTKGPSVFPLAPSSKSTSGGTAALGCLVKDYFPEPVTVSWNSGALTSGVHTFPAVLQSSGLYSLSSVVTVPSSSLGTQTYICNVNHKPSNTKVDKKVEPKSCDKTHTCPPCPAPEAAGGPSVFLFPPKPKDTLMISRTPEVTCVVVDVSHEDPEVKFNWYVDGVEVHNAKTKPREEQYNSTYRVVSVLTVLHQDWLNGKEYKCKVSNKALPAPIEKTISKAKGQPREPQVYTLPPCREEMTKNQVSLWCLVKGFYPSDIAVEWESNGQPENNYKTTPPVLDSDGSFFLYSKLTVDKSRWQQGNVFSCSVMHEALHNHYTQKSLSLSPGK
chain: B2 chain with S32A, R56N, Y59V, L104I
notes: BCMAxCD3, Fab-Fc-VH (structure 11); CD3 Fab of PR003886, BCMA VH of PR004565; IgG1 knob/hole, LALA

Target: T1, human BCMA
Test: FACS on NCI-H929 cells

Row | Binder | Maximum MFI | EC50 [nM]
1 | B1 | 2590 | –
2 | B2 | 12500 | 1.7
3 | B3 | 10600 | 3.3
